The values below are quoted from earlier work in publication PMC11381810.

In data set [1] the target is syntaxin-1 SNARE motif (Rattus norvegicus) (UniProt P32851). As to conditions: cited from earlier work.
Data set [2] deals with syntaxin-1 dimer SNARE motif (Rattus norvegicus) (UniProt P32851). The following applies: cited from earlier work.

Sequence of syntaxin-1 dimer SNARE motif (P32851 191-253): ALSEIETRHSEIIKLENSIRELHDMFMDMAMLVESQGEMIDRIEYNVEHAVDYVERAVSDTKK
Sequence of syntaxin-1 SNARE motif (P32851 191-253): as above

Turning to “syntaxin-1 SNARE motif (from UniProt P32851)”, the Kd in data set [1] is 1.4 µM. For the substance “syntaxin-1 dimer SNARE motif (from UniProt P32851)”, in data set [2], the Kd was 12 µM.
